Assays:
[1] = target: 6xHis-TLX ligand-binding domain, Q9Y466; experiment: BLI; 6xHis-TLX LBD on Ni-NTA biosensors, Octet Red 96; atrophin peptide in solution
[2] = target: 6xHis-TLX ligand-binding domain, Q9Y466; experiment: AlphaScreen or HTRF; ALPHA; atrophin peptide on donor beads, TLX ligand-binding domain on acceptor beads; competition with untagged atrophin peptide

Chain of 6xHis-TLX ligand-binding domain, Q9Y466 (Q9Y466 155-385): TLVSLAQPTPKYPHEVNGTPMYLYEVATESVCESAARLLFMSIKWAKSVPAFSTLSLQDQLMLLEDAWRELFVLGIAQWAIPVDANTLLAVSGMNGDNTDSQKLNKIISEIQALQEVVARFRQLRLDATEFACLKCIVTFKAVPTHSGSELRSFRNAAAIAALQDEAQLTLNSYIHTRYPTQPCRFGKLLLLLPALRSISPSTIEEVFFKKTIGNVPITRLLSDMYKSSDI

Binder PPYADTPALRQLSEYARPHVAFSP (modifications not checked) [atrophin corepressor peptide (untagged)] has a Kd [1] of 14.2 µM and an EC50 [2] of 1.3 µM.

Reference: paper PMC9060471
